Test results reported in US20100168016A1, “DIAGNOSIS AND TREATMENT OF DISEASES CAUSED BY MISFOLDED PROTEINS” (THE JACKSON LABORATORY, priority 2007, published 2010).

Columns and labels:
[1] = tested on: sti/sti embryonic fibroblasts; assay: serine-induced cell death in embryonic fibroblasts; format: cell-based, mouse; details: ANKRD16^CAST/+; sti/sti fibroblasts vs sti/sti, increasing serine
Source text: FIG. 5. A graph depicting viability curves for mouse embryonic fibroblasts (MEFs) with increasing concentrations of serine in the culture media. ANKRD 16 (Stim^CAST) rescues serine-mediated cell death in sti/sti fibroblasts.
We analyzed serine-induced cell death in +/+, ANKRD16^CAST/+; sti/sti, and sti/sti embryonic fibroblasts. Mouse embryonic fibroblasts were isolated from mouse embryos carrying no mutation (WT; C57BL/6J), the CAST-derived ANKRD16 gene (ANKRD16^CAST/+) and the sticky (sti/sti) mutation, or carrying the C57BL/6 ANKRD16 gene and the sti mutation (sti/sti).

[2] = tested on: sti/sti Purkinje cells; assay: Purkinje cell survival in sti/sti mice carrying the Pcp2-driven ANKRD16 transgene; format: in vivo, mouse
Source text: To determine if ANKRD16 can rescue neuron death in a cell autonomous fashion, we transgenically expressed the ANKRD16 cDNA in Purkinje cells and examined the role of this transgene in Purkinje cell survival in sti/sti mice. ANKRD16 coding sequence was amplified by polymerase chain reaction from cDNA by using Pfu DNA polymerase (Stratagene), purified by agarose gel electrophoresis and ligated into the expression vector. Transgenic (TgPcp2-ANKRD16) mice carrying the full-length ANKRD16 cDNA (ANKRD16^361 or CAST allele) were generated on the inbred C57BL/6J background by microinjection of the purified DNA into C57BL/6J zygotes.

[3] = tested on: sticky mutant mice; assay: fertility (number of live offspring) of sticky mutant mice; format: in vivo, mouse; details: ANKRD16^CAST crossed into sti/sti; 7 matings, females 8-9 weeks
Experimental: FIGS. 7. A graph depicting litter size (y axis) in WT, STIM and STI mice (x axis). Expression of ANKRD16 protein can restore the reduced fertility in sticky mutant mice. “WT” refers to C57BL/6J wild type mice, “STIM” refers to sticky mutant mice carrying the modifier gene ANKRD16, and STI means homozygous sticky mutant mice.
Female mice of the various genotypes at the age of at 8-9 weeks were mated and the fertility was determined by counting the number of live offspring. When mating C57BL/6J mice (WT), which are wild type, the average litter size was 6.87 from 8 matings with a total of 55 offspring. […] When the modifier gene ANKRD16^CAST was crossed into the sti/sti mutations, the litter size was restored to normal with 6.51 pups from 7 matings with a total of 46 offspring. […] The CAST ANKRD16 is the full length version of ANKRD16, also called ANKRD^361.

[4] = tested on: sti/sti Purkinje cells; assay: ubiquitinated protein inclusions in sti/sti Purkinje cells; format: in vivo, mouse; details: sti/sti mice, 4, 6 and 12 weeks of age
Source text: FIGS. 9A and B. Graphs illustrating that the expression of full length ANKRD16 reduces protein inclusions in sti/sti Purkinje cells. Sti/sti means homozygous sticky mice (B6.Cg-Aarssti/J). ANKRD16; sti/sti means homozygous sticky mice intercrossed with mice expressing full length ANKRD16. […] 4W means brains were isolated from 4 week old mice, 6W for 6 week old mice and 12 W for 12 week old mice.
Brains from homozygous sticky mice (sti/sti; B6.Cg-Aarssti/J; available from The Jackson Laboratory Stock Number 002560) and sticky mice intercrossed with transgenic mice expressing the full length ANKRD16, were isolated at the age of 4 weeks, 6 weeks and 12 weeks. The brains were processed for sectioning and antibody staining using standard histological methods. Sagittal sections were prepared and immunostained with antibodies against ubiquitin and calbindin. The antibodies against calbidin D-28 were used to visualize Purkinje cells. The antibodies against ubiquitin were used to visualize ubiquitinated protein aggregates. Purkinje cells with ubiquitinated aggregates were counted from three sections spaced at 100 micrometer beginning at midline and working laterally per mouse. Three mice from each genotype were analyzed. The total number of Purkinje cells with inclusions as well as the % of remaining Purkinje cells with inclusions are shown in the graphs in FIGS. 9A and 9B.

[5] = tested on: ubiquitin/proteasome pathway; assay: UbG76V-GFP proteasome reporter in mouse embryonic fibroblasts (FACS); format: cell-based; details: ANKRD16^CAST double transgenic fibroblasts, 1.5 uM epoximicin for 6 hours
Experimental: FIG. 13. […] Mouse embryonic fibroblasts were analyzed from UbG76V-GFP transgenic and UbG76V-GFP; ANKRD16^CAST double transgenic mice; untreated and treated with 1000 nM epoximicin for 6; 12 or 18 hours (hr). The presence of the ANKRD16^CAST allele leads to reduced GFP intensity which correlates with increased proteasome activity.
Two lines of transgenic mice, UB^G76V-1 and UB^G76V-2, were generated with a ubiquitin-fusion GFP driven by the chicken β-actin promoter (Lindsten et al., 2003a; Lindsten et al., 2003b). UbG76V-GFP transgenic mice are available from The Jackson Laboratory (stock number 008111 and 008112). These mice ubiquitously express transcripts for the transgene, but as expected from the short half-life of the modified GFP protein, GFP is undetectable in all tissues analyzed. […]
UbG76V-GFP transgenic mice were intercrossed with the BAC transgenic mice carrying the CAST allele of ANKRD16, which gives rise to full length ANKRD16 mRNA and protein, yielding in double transgenic called UbG76V-GFP; ANKRD16^CAST. […] Using Western blot analysis the expression of ANKRD16 was analyzed showing an upregulation of ANKRD16 in the double transgenic mice UbG76V-GFP; ANKRD16 6^CAST. […]

[6] = tested on: mouse embryonic fibroblasts; assay: epoximicin-induced cell death of mouse embryonic fibroblasts (propidium iodide, FACS); format: cell-based; details: epoximicin 400 nM to 2500 nM for 18 hours
Experimental: FIG. 14. […] Fibroblasts with different genotypes were compared: WT means C57BL/6J; UbG76VGFP transgenic and ANKRD16^CAST UbG76V-GFP double transgenic.
Mouse embryonic fibroblasts were treated with 1.5 uM epoximicin for 6 hours before the GFP (green fluorescent protein) levels were analyzed by fluorescence microscopy (data not shown) or fluorescence-activated cell sorting (FACS) analysis (FIG. 13). Mouse embryonic fibroblasts not expressing the ANKRD16^CAST allele show a higher GFP level. […] The proteasome inhibitor epoximicin prevents the rapid degradation of GFP in the proteasome. […] Further the embryonic fibroblasts from the C57BL/6J wild type (WT), UbG76V-GFP transgenic and UbG76V-GFP; ANKRD16^CAST double transgenic mice were treated with various concentrations of epoximicin for 18 hours. The epoximicin concentrations ranged from 400 nM to 2500 nM (see FIG. 14). Fibroblasts were stained with propidium iodide to evaluate the percentage of cell death by FACS analysis.

B1: ANKRD16^CAST: full length (361 amino acid) ANKRD16 from the CAST allele, expressed from congenic region or transgene in mice and cells (protein)
chain: MALPGDPRRLCRLVQEGRLRDLQEELAVARGCRGPAGDTLLHCAARHGRQDILAYLVEAWSMDIEATNRDYKRPLHEAASMGHRDCVRYLLGRGAVVDSLKKADWTPLMMACTRKNLDVIQDLVEHGANPLLKNKDGWNSFHIASREGHPVILRYLLTVCPDAWKTESNIRRTPLHTAAMHGCLEAVQVLLERCHYEPDCRDNCGVTPFMDAIQCGHVSIAKLLLEQHKACSSAADSMGAQALHRAAVTGQDEAIRFLVCGLGIDVDVRAKSSQLTALHYAAKEGQTNTVQTLLSLGADINSTDERNRSVLHLACAGQHVACTRLLLQSGLKDSADLTGTLAQQLMRSVDILQDFDHDVKS
rescue from serine-induced cell death [1]: completely rescued
ataxia ([2]; sti/sti mice carrying the transgene, 3 months of age): no signs of ataxia
Purkinje cell death (calbindin D-28 immunohistochemistry) ([2]; sti/sti mice, Pcp2 (L7) promoter): suppression of Purkinje cell death
litter size [3]: 6.51 pups
Purkinje cells with protein aggregates [4]: reduces Purkinje cells with protein aggregates
green fluorescence from GFP [5]: greatly reduced
cell death [6]: reduced cell death
